According to patent US8581042B2, “Polypeptides having beta-glucosidase activity and polynucleotides encoding same” (Novozymes A/S, priority 2010, dated 2013):

Tests used:
[1] = Thermostability: residual activity on pNPG after incubation; assay type: physicochemical; details: 1 g/L, pH 5
Protocol: (§1) Specific activity. 4-Nitrophenyl-beta-D-glucopyranoside (pNPG) was dissolved in DMSO to produce a 100 mM stock solution. Right before assay, the 100 mM pNPG stock solution was diluted 100-fold in 50 mM sodium acetate pH 5 with 0.01% TWEEN® 20 to 1 mM pNPG. Enzyme was diluted to a wide range of concentrations in the same buffer. To 20 μl of the enzyme dilutions (a range of concentration), 100 μl of the 1 mM pNPG solution were quickly added. The reaction was incubated at 40° C. for 20 minutes before the reaction was stopped with 50 μl of 1 M sodium carbonate pH 10, and the absorbance at 405 nm was measured for 4-nitrophenolate production. The specific activity of the Penicillium oxalicum GH3 beta-glucosidase on pNPG was determined to be 72.3±1.7 IU/mg, where […] produce 1 μmole of glucose per minute at 40° C., pH 5.
Thermostability. The Penicillium oxalicum GH3 beta-glucosidase was diluted in 50 mM sodium acetate pH 5 with 0.01% TWEEN® 20 to 1 g/L, and then incubated at 50° C. for 3 days, and 60° C. for 3 hours or 24 hours. The same sample was stored at 4° C. to serve as control. After incubation, the residual activity of the samples was measured using pNPG as substrate, following the same assay protocol described above, but using one enzyme loading which yielded less than 5% conversion. The activity of the sample in 4° C. was normalized to 100%, and the activities of samples at other incubation conditions were compared to the 4° C. activity. The thermostability of the Penicillium oxalicum GH3 beta-glucosidase is shown below.

[2] = PCS hydrolysis assay (1-gram ground-sieved, unwashed PCS), cellulose conversion; assay type: biochemical; details: supplemented; 50 and 55° C., pH 5.0
Protocol: Corn stover was pretreated at the U.S. Department of Energy National Renewable Energy Laboratory (NREL) using dilute sulfuric acid. The conditions used for the pretreatment were 0.048 g sulfuric acid/g dry biomass at 190° C. and 25% w/w dry solids for around 1 minute. The water-insoluble solids in the pretreated corn stover (PCS) contained 52% cellulose, 3.6% hemicellulose and 29.8% lignin. Cellulose and hemicellulose were determined by a two-stage sulfuric acid hydrolysis with subsequent analysis of sugars by high performance liquid chromatography using NREL Standard Analytical Procedure #002. Lignin was determined gravimetrically after hydrolyzing the cellulose and hemicellulose fractions with sulfuric acid using NREL Standard Analytical Procedure #003. […] The protein concentration was determined using a BCA Reagent Kit (Pierce, Rockford, Ill., USA).
Penicillium oxalicum GH3 beta-glucosidase (1.5 mg/g cellulose) was added to CELLUCLAST® 1.5L (15 mg/g cellulose) for a total loading of 16.5 mg protein/g cellulose. […] After 72 hour incubation at 50 and 55° C., samples were mixed well, centrifuged at 3000 rpm for 5 minutes, and supernatants were filtered using a 0.45 μm MULTISCREEN® 96-well filter plate (Millipore, Bedford, Mass., USA) and filtrates analyzed for sugar content as described below. […]

[3] = pH activity profile on pNPG; assay type: biochemical; details: Britton Robinson buffer, 50° C.
Protocol: as §1
pH profile. The pH activity profile of the Penicillium oxalicum GH3 beta-glucosidase was determined using the same protocol described above, except the beta-glucosidase was incubated at four different pHs (4, 5, 6, and 7) and one enzyme loading was used, which yielded less than 5% conversion. Britton Robinson buffer (100 mM) was used as the buffer system. The 100 mM Britton Robinson buffer was titrated to a various pH values in the range of 4-7 using 5 M sodium hydroxide and then diluted to 40 mM with deionized water. The pNP-glucose was prepared in the same buffer, and the activity was measured at 50° C. The highest activity was normalized to 100%, and activities at the other pH values were compared to the highest activity and expressed in % activity. The pH profile of the Penicillium oxalicum GH3 beta-glucosidase is shown below.

[4] = Specific activity on pNPG; assay type: biochemical; details: 40° C., pH 5, 20 minutes
Protocol: as §1

B1: Penicillium oxalicum GH3 beta-glucosidase: Family GH3 beta-glucosidase of Penicillium oxalicum strain IBT5387 (SEQ ID NO: 2), expressed in Aspergillus oryzae and purified (protein, listed as Penicillium oxalicum)
chain: MRSSTTVLAFVSYGSFGIAAAKPIQEHKPELLNSFHGFQIEEPYSPPFYPSPWMNPRAEGWEDAYQKALAFVSQLTLLEKVNLTTGVGWENGPCVGNTGSVPRLGFKGLCLQDSPQGVRFADYASAFTSSQMAAATFDKTVLYERGVAMAQEHKGKGITVQLGPVAGPLGRAPEGGRNWEGFSPDPVLNGIAMAETIKGMQDTGVLACAKHYVGNEQEHFRQAGESAGHGYNIAESISSNIDDRTMHEMYLWPFADAVRAGVASFMCSYNQINNSYGCQNSHTLNKLLKSELGFQGFVMSDWQAQHSGVSSALAGLDMTMPGDTEFDTGLSFWGSNLTIAVLNGTVPEWRIDDMAMRIMAAYFKVGLTIEDQPDVNFNSWTYDTYGYKYFYSKEGYEKVNWHVDVRANHAQQIRETAAKGTVLLKNTNGALPLKRPSFVAVVGEDAGPNPKGPNGCPDRGCDEGTLAMGWGSGSTQFPFLVTPDSAIQAKVLEYGGRYESILDNYDESAISALVSQPDATCIVFGNSDSGEAFITVDGNWGDRNNLTLWQNADAVIRNVSALCSNTIVVLHTVGPVLLTDYYEHPNITAIVWAGLPGEESGNALVDILWGDVNPAGRTPFTWAKSREDYGTDVMYVPNNGEQAPQQSFSEGIFLDYRHFDQAGIDPIYEFGHGLSYTNFSYSDLRIVTKHVRPYRPTTGMTTQAPIIGPLPSPNLTEYQFPATFKYIPAFIYPYLNSTESLRAASKDPHYGSTAFIPPHALDSSPQPLNPAGDPIASGGNSMLYQELYEITAKITNTGNLAGDEVVQLYVNLGGDNPPRQLRGFDRIHLLPGQSKVFRATLTRRDLSNWDVAAQNWRIIRSAKEVYVGRSSRDLPLSARLESW
[1]; incubation 4° C. (control, normalized to 100%)
  Residual activity on pNPG: 100%
[1]; incubation 50° C., 72 hours
  Residual activity on pNPG: 100%
[1]; incubation 60° C., 3 hours
  Residual activity on pNPG: 100%
[1]; incubation 60° C., 24 hours
  Residual activity on pNPG: 100%
[1]; incubation 70° C., 24 hours
  Residual activity on pNPG: 76%
[2]
  effect on CELLUCLAST 1.5L in PCS hydrolysis: synergistic effect
[3]; pH 4.0
  Activity (relative to highest activity): 38%
[3]; pH 5.0
  Activity (relative to highest activity): 99%
[3]; pH 6.0
  Activity (relative to highest activity): 100%
[3]; pH 7.0
  Activity (relative to highest activity): 36%
[4]
  specific activity on pNPG: 72.3±1.7 IU/mg
